Assay [1] has as its target T1, plasma-membranous human MSLN on cell lines (H226, HPAC, H292, OVCAR-3, MeT-5A) (human, UniProt Q13421 296-598).
T1 construct: whole, on cells; also called human MSLN on H226 cells; mesothelin on target cells
The experiment in a line: flow cytometry on H292 cells, protein L-PE, 4PL fit.
Experimental: (§1) Plates were incubated 30 min at RT on a nutating mixer, washed twice with staining buffer, centrifuged for 5 min at 200 g and re-suspended in a final volume of 50 μl of staining buffer. PE signal of 20,000 events per well was analyzed by flow cytometry using a Novocyte flow cytometer device and the data were analyzed using the NovoExpress software (ACEA Biosciences). Mean fluorescence intensity (MFI) values of MATCH molecules were corrected for non-specific binding by subtracting blank (zero concentration of antibody). MFI data were analyzed with a four-parameter logistic curve fit using the GraphPad Prism Data Analysis Software (Graph Pad Software), and the concentration of molecules of interest required to reach 50% of target cell binding (EC₅₀) was calculated.

For assay [2], the target named is T1, plasma-membranous human MSLN on cell …. Briefly: flow cytometry on H292 cells. For orientation: A flow cytometer gives signals particle by particle.
Experimental: as §1
Assay [3] shares this target. Briefly: flow cytometry on Met-5A cells, protein L-PE, 4PL fit.
Experimental: as §1
For assay [4] the target is unchanged. Briefly: flow cytometry on HPAC cells, protein L-PE, 4PL fit.
Experimental: as §1
The target is the same in assay [5]. The experiment in a line: flow cytometry on HPAC cells.
Experimental: as §1
For assay [6] the target is unchanged. Briefly: cell-based or functional assay.
The target is the same in assay [7]. The experiment in a line: flow cytometry on H226 cells, protein L-PE, 4PL fit.
Experimental: as §1
The target in assay [8] is soluble mesothelin (sMSLN). The experiment in a line: cell-based or functional assay.
In assay [9] the target is T1, plasma-membranous human MSLN on cell …. Briefly: flow cytometry on H226 cells.
Experimental: as §1

B1: PRO2100 (MATCH4) (other)
chain 1: DIQMTQSPSSLSASVGDRVTITCQASQNIYSNLAWYQQKPGKAPKLLIYDASDLASGVPSRFSGSGSGTDFTLTISSLQPEDFATYYCQQVRSSSDIDNPFGTGTKVTVLGGGGGSGGGGSGGGGSGGGGSQVQLVESGGGLVQPGGSLRLSCAASGFSLSSYAMGWVRQAPGKGLEWIGYISTIANTYYASWAKGRFTISRDNSKNTVYLQMNSLRAEDTAVYYCAREIRSGWVDYGFSIWGQGTLVTVSSGGGGSGGGGSEVQLVESGGGLVQPGGSLRLSCAASGFSLSSYDMSWVRQAPGKGLAWIGASYASGPTYYASWAKGRFTISRDNSKNTVYLQMNSLRAEDTATYFCARGGWTGTSHSNIWGQGTLVTVSSGGGSGGGSEVQLVESGGGLVQPGGSLRLSCAASGFSFSSSYWICWVRQAPGKCLEWVGCVFTGDGTTYYASWAKGRFTISRDNSKNTVYLQMNSLRAEDTATYFCARPVSVYYYGMDLWGQGTLVTVSS
chain 2: DIQMTQSPSSLSASVGDRVTITCQASQNIYSNLAWYQQKPGKAPKLLIYDASDLASGVPSRFSGSGSGTDFTLTISSLQPEDFATYYCQQVRSSSDIDNPFGTGTKVTVLGGGGGSGGGGSGGGGSGGGGSQVQLVESGGGLVQPGGSLRLSCAASGFSLSSYAMGWVRQAPGKGLEWIGYISTIANTYYASWAKGRFTISRDNSKNTVYLQMNSLRAEDTAVYYCAREIRSGWVDYGFSIWGQGTLVTVSSGGGGSGGGGSDVVMTQSPSSLSASVGDRVTITCQASQIISSRSAWYQQKPGQPPKLLIYQASKLASGVPSRFSGSGSGTDFTLTISSLQPEDFATYYCQCTYIDSNFGAFGCGTKLTVLGGGSGGSDIQMTQSPSSLSASVGDRVTITCQSSQSVFSNNYLAWFQQKPGQSPKRLIYSASTLASGVPSRFSGSGSGTDFTLTISSLQPEDFATYYCLGSYACSSADCYVFGTGTKVTVLG
notes: Variant of PRO2000 with anti-MSLN 54-01-G02-sc01 N66A (potential glycosylation site mutated)
B1: in [1], the EC50 amounted to 1.3 nM and the “max. binding (MFI)” value stood at 6250 MFI. Besides, in assay [2], the “fold lower binding against PRO1872” value was determined as 2 fold. In addition, in [3], the EC50 stood at 0.0628 nM and the “max. binding (MFI)” value worked out at 7480 MFI. For the same molecule, in assay [4], the EC50 was determined as 1.01 nM and the “max. binding (MFI)” value came to 18000 MFI. In [5], the “fold binding against PRO1872” value is 1.5 to 2 fold. Further, in assay [6], the “EC50 target cell killing, H226 cells, 100 ng/ml sMSLN” value amounted to 0.00356 nM; the “EC50 target cell killing, H226 cells, no sMSLN” value is 0.00154 nM; the “max. killing, H226 cells, 100 ng/ml sMSLN” value was 58.9%; the “max. killing, H226 cells, no sMSLN” value amounted to 46.3%. Also, in assay [7], it took 0.524 nM to reach a half-maximal effect (EC50) and the “max. binding (MFI)” value was determined as 363000 MFI. Moreover, in assay [8], the “shift of H226 killing potency with 100 ng/ml sMSLN” value was 2 fold. Moreover, the “fold binding against PRO1872” value in assay [9] is 3 fold.

A word on the EC50: it is the concentration giving half of the maximal effect. A lower EC50 goes with a more potent agent.
